Consider 1 molecule from patent US20060035245, “Modulators of enzymatic nucleic acid elements mobilization” (published 2006).

The target in this series is Tn5 transposase hyperactive mutant (EK54, MA56, LP372) (UniProt Q46731 Q46731:1-476, E54K,M56A,L372P). As to the kind of experiment: EMSA; complex assembly, inhibited by small molecules with IC50 3.5-46 uM. Conditions: chain copies: 2; label: fluorescein 5' end of transferred strand. On the technique in general: A gel shift assay detects complexes by their altered migration in electrophoresis.

Procedure: For FP analysis, 60 μL reactions were analyzed using the FP protocol on a Wallac Victor V plate reader and a 7% native polyacrylamide gel was used in gel shift assays. For compound screening and subsequent analysis, 1 μL of either DMSO or test compound (final concentration 80 μM) was added to the synapsis reactions. Compound screening was carried out using a Beckman Coulter Biomek FX in a 384 well format. […] IC₅₀ values were obtained by fitting inhibitor titration data (0, 0.01, 0.05, 0.1, 0.5, 2.5, 10, 20, 35, 50, 100, 200, 400, 800 μM) to an exponential decay.

B1: 60 bp Tn5 substrate for inhibitor verification (dsDNA)
DNA 1: GGCCACGACACGCTCCCGCGCTGTCTCTTATACACATCTTGAGTGAGTGAGCATGCATGT
DNA 2: ACATGCATGCTCACTCACTCAAGATGTGTATAAGAGACAGCGCGGGAGCGTGTCGTGGCC
In the case of B1, the binding result was “binds”.
